Data on 19 molecules can be found in the FLAb antibody collection (doi:10.1101/2023.12.08.570889).

A word on the Kd: it is the concentration at which binding is half-saturated. Higher therefore signals a looser complex.

B1: unnamed (protein)
chain 1: QVQLVQSGAEVKKPGASVKVSCKASGYSFTSSWIHWVKQAPGQGLEWMGEINPGNVRTNYNENFRNKVTMTVDTSISTAYMELSRLRSDDTAVYYCTVVFYGEPYFPYWGQGTLVTVSS
chain 2: QIVLTQSPGTLSLSPGERATMTCTASSSVSSSYFHWYQQKPGQAPRLWIYRTSRLASGVPDRFSGSGSGTDFTLTISRLEPEDAATYYCHQFHRSPLTFGAGTKLEIK
B2: unnamed (protein)
chain 1: QVQLVQSGAEVKKPGASVKVSCKASGYSFTSSWIHWVKQAPGQGLEWMGEINPGNVRTNYNENFRNKVTMTVDTSISTAYMELSRLRSDDTAVYYCTRVQYGEPYFDYWGQGTLVTVSS
chain 2: QIVLTQSPGTLSLSPGERATMTCTASSSVSSSYFHWYQQKPGQAPRLWIYRTSRLASGVPDRFSGSGSGTDFTLTISRLEPEDAATYYCHQFHRSPLTFGAGTKLEIK
B3: unnamed (protein)
chain 1: QVQLVQSGAEVKKPGASVKVSCKASGYSFTSSWIHWVKQAPGQGLEWMGEINPGNVRTNYNENFRNKVTMTVDTSISTAYMELSRLRSDDTAVYYCTRSRYGEPWFDYWGQGTLVTVSS
chain 2: QIVLTQSPGTLSLSPGERATMTCTASSSVSSSYFHWYQQKPGQAPRLWIYRTSRLASGVPDRFSGSGSGTDFTLTISRLEPEDAATYYCHQFHRSPLTFGAGTKLEIK
B4: unnamed (protein)
chain 1: EVQLLESGGGLVQPGGSLRLSCAASGFTFSQYGMDWVRQAPGKGLEWVSGIGPSGGSTVYADSVKGRFTISRDNSKNTLYLQMNSLRAEDTAVYYCTRDGPAWYYAFDVWGQGTTVTVSS
chain 2: DIQMTQSPSSLSASVGDRVTITCQASQDISNYLNWYQQKPGKAPKLLIYDASNLETGVPSRFSGSGSGTDFTFTISSLQPEDIATYYCQQADSFPVTFGGGTKVEIK
B5: unnamed (protein)
chain 1: EVQLLESGGGLVQPGGSLRLSCAASGFTFSQYGMDWVRQAPGKGLEWVSGIGPSGGSTVYADSVKGRFTISRDNSKNTLYLQMNSLRAEDTAVYYCTRDGDAYYYAFDVWGQGTTVTVSS
chain 2: DIQMTQSPSSLSASVGDRVTITCQASQDISNYLNWYQQKPGKAPKLLIYDASNLETGVPSRFSGSGSGTDFTFTISSLQPEDIATYYCQQADSFPVTFGGGTKVEIK
B6: unnamed (protein)
chain 1: EVQLLESGGGLVQPGGSLRLSCAASGFTFSQYGMDWVRQAPGKGLEWVSGIGPSGGSTVYADSVKGRFTISRDNSKNTLYLQMNSLRAEDTAVYYCTRDGGAYYYAFDVWGQGTTVTVSS
chain 2: DIQMTQSPSSLSASVGDRVTITCQASQDISNYLNWYQQKPGKAPKLLIYDASNLETGVPSRFSGSGSGTDFTFTISSLQPEDIATYYCQQADSFPVTFGGGTKVEIK
B7: unnamed (protein)
chain 1: EVQLLESGGGLVQPGGSLRLSCAASGFTFSQYGMDWVRQAPGKGLEWVSGIGPSGGSTVYADSVKGRFTISRDNSKNTLYLQMNSLRAEDTAVYYCARGGPAWYYAFDVWGQGTTVTVSS
chain 2: DIQMTQSPSSLSASVGDRVTITCQASQDISNYLNWYQQKPGKAPKLLIYDASNLETGVPSRFSGSGSGTDFTFTISSLQPEDIATYYCQQADSFPVTFGGGTKVEIK
B8: unnamed (protein)
chain 1: EVQLLESGGGLVQPGGSLRLSCAASGFTFSQYGMDWVRQAPGKGLEWVSGIGPSGGSTVYADSVKGRFTISRDNSKNTLYLQMNSLRAEDTAVYYCARGGPAYYYAFDIWGQGTTVTVSS
chain 2: DIQMTQSPSSLSASVGDRVTITCQASQDISNYLNWYQQKPGKAPKLLIYDASNLETGVPSRFSGSGSGTDFTFTISSLQPEDIATYYCQQADSFPVTFGGGTKVEIK
B9: unnamed (protein)
chain 1: EVQLLESGGGLVQPGGSLRLSCAASGFTFSQYGMDWVRQAPGKGLEWVSGIGPSGGSTVYADSVKGRFTISRDNSKNTLYLQMNSLRAEDTAVYYCTRGGPAYYYAFDYWGQGTTVTVSS
chain 2: DIQMTQSPSSLSASVGDRVTITCQASQDISNYLNWYQQKPGKAPKLLIYDASNLETGVPSRFSGSGSGTDFTFTISSLQPEDIATYYCQQADSFPVTFGGGTKVEIK
B10: unnamed (protein)
chain 1: EVQLLESGGGLVQPGGSLRLSCAASGFTFSQYGMDWVRQAPGKGLEWVSGIGPSGGSTVYADSVKGRFTISRDNSKNTLYLQMNSLRAEDTAVYYCTRGGPAWYYAFDVWGQGTTVTVSS
chain 2: DIQMTQSPSSLSASVGDRVTITCQASQDISNYLNWYQQKPGKAPKLLIYDASNLETGVPSRFSGSGSGTDFTFTISSLQPEDIATYYCQQADSFPVTFGGGTKVEIK
B11: unnamed (protein)
chain 1: EVQLLESGGGLVQPGGSLRLSCAASGFTFSQYGMDWVRQAPGKGLEWVSGIGPSGGSTVYADSVKGRFTISRDNSKNTLYLQMNSLRAEDTAVYYCTRDGPYYYYAFDYWGQGTTVTVSS
chain 2: DIQMTQSPSSLSASVGDRVTITCQASQDISNYLNWYQQKPGKAPKLLIYDASNLETGVPSRFSGSGSGTDFTFTISSLQPEDIATYYCQQADSFPVTFGGGTKVEIK
B12: unnamed (protein)
chain 1: EVQLLESGGGLVQPGGSLRLSCAASGFTFSQYGMDWVRQAPGKGLEWVSGIGPSGGSTVYADSVKGRFTISRDNSKNTLYLQMNSLRAEDTAVYYCARDGPSWYYAFDVWGQGTTVTVSS
chain 2: DIQMTQSPSSLSASVGDRVTITCQASQDISNYLNWYQQKPGKAPKLLIYDASNLETGVPSRFSGSGSGTDFTFTISSLQPEDIATYYCQQADSFPVTFGGGTKVEIK
B13: unnamed (protein)
chain 1: EVQLLESGGGLVQPGGSLRLSCAASGFTFSQYGMDWVRQAPGKGLEWVSGIGPSGGSTVYADSVKGRFTISRDNSKNTLYLQMNSLRAEDTAVYYCTRDGRSYYYAFDVWGQGTTVTVSS
chain 2: DIQMTQSPSSLSASVGDRVTITCQASQDISNYLNWYQQKPGKAPKLLIYDASNLETGVPSRFSGSGSGTDFTFTISSLQPEDIATYYCQQADSFPVTFGGGTKVEIK
B14: unnamed (protein)
chain 1: EVQLLESGGGLVQPGGSLRLSCAASGFTFSQYGMDWVRQAPGKGLEWVSGIGPSGGSTVYADSVKGRFTISRDNSKNTLYLQMNSLRAEDTAVYYCARGGSAYYYAFDVWGQGTTVTVSS
chain 2: DIQMTQSPSSLSASVGDRVTITCQASQDISNYLNWYQQKPGKAPKLLIYDASNLETGVPSRFSGSGSGTDFTFTISSLQPEDIATYYCQQADSFPVTFGGGTKVEIK
B15: unnamed (protein)
chain 1: EVQLLESGGGLVQPGGSLRLSCAASGFTFSQYGMDWVRQAPGKGLEWVSGIGPSGGSTVYADSVKGRFTISRDNSKNTLYLQMNSLRAEDTAVYYCTRGGTAYYYAFDVWGQGTTVTVSS
chain 2: DIQMTQSPSSLSASVGDRVTITCQASQDISNYLNWYQQKPGKAPKLLIYDASNLETGVPSRFSGSGSGTDFTFTISSLQPEDIATYYCQQADSFPVTFGGGTKVEIK
B16: unnamed (protein)
chain 1: EVQLLESGGGLVQPGGSLRLSCAASGFTFSQYGMDWVRQAPGKGLEWVSGIGPSGGSTVYADSVKGRFTISRDNSKNTLYLQMNSLRAEDTAVYYCARDGPAYYYAFDVWGQGTTVTVSS
chain 2: DIQMTQSPSSLSASVGDRVTITCQASQDISNYLNWYQQKPGKAPKLLIYDASNLETGVPSRFSGSGSGTDFTFTISSLQPEDIATYYCQQADSFPVTFGGGTKVEIK
B17: unnamed (protein)
chain 1: EVQLLESGGGLVQPGGSLRLSCAASGFTFSQYGMDWVRQAPGKGLEWVSGIGPSGGSTVYADSVKGRFTISRDNSKNTLYLQMNSLRAEDTAVYYCTRGGPAYYYGFDYWGQGTTVTVSS
chain 2: DIQMTQSPSSLSASVGDRVTITCQASQDISNYLNWYQQKPGKAPKLLIYDASNLETGVPSRFSGSGSGTDFTFTISSLQPEDIATYYCQQADSFPVTFGGGTKVEIK
B18: unnamed (protein)
chain 1: EVQLLESGGGLVQPGGSLRLSCAASGFTFSQYGMDWVRQAPGKGLEWVSGIGPSGGSTVYADSVKGRFTISRDNSKNTLYLQMNSLRAEDTAVYYCTRGGPWYYYAFDVWGQGTTVTVSS
chain 2: DIQMTQSPSSLSASVGDRVTITCQASQDISNYLNWYQQKPGKAPKLLIYDASNLETGVPSRFSGSGSGTDFTFTISSLQPEDIATYYCQQADSFPVTFGGGTKVEIK
B19: unnamed (protein)
chain 1: EVQLLESGGGLVQPGGSLRLSCAASGFTFSQYGMDWVRQAPGKGLEWVSGIGPSGGSTVYADSVKGRFTISRDNSKNTLYLQMNSLRAEDTAVYYCTRDGPDYYYAFDYWGQGTTVTVSS
chain 2: DIQMTQSPSSLSASVGDRVTITCQASQDISNYLNWYQQKPGKAPKLLIYDASNLETGVPSRFSGSGSGTDFTFTISSLQPEDIATYYCQQADSFPVTFGGGTKVEIK

The target in the first assay is IL36R. In words: Kd (SPR).
As for B1, the Kd is 0.964 nM. That is a sub-nanomolar value.

Regarding B2, the Kd is 0.617 nM. This Kd is about 1.6-fold lower than that of the molecule before.

B3: the Kd was 24.5 nM.

A further assay has as its target FXI. In words: Kd (SPR).
Molecule B4 registered a Kd of 51.7 nM.

Molecule B5 displayed a Kd of 625 nM.

Molecule B6 had a Kd of 135 nM.

In turn, B7 showed a Kd of 204 nM.

The molecule B8 showed a Kd of 430 nM.

On to B9, for which the Kd is 306 nM. This Kd and that of the molecule before are within 1.5-fold of each other.

Turning to B10, the Kd is 241 nM.

Regarding B11, the Kd turned out to be 68 nM. Against the preceding molecule, the Kd is about 3.5-fold lower.

With B12, the Kd worked out at 59.9 nM.

Molecule B13 registered a Kd of 750 nM. This Kd is about 13-fold higher than that of the molecule before.

B14 showed a Kd of 822 nM.

Consider B15, for which the Kd amounted to 1410 nM.

Molecule B16 gave a Kd of 84 nM.

Regarding B17, the Kd is 148 nM.

Molecule B18 returned a Kd of 284 nM. Compared with the last molecule, the Kd is about 1.9-fold higher.

With B19, the Kd came out at 573 nM. Against the preceding molecule, the Kd is about 2-fold higher.
